In US20050042664A1 (AstraZeneca / MedImmune, published 2005):

Target: T1, human EphA2 (human, UniProt P29317 24-534, limits assumed)
T1 construct: Target of the BIAcore analysis as named in the text
Test: BIAcore; format not stated

T1 sequence (P29317 24-534 limits assumed): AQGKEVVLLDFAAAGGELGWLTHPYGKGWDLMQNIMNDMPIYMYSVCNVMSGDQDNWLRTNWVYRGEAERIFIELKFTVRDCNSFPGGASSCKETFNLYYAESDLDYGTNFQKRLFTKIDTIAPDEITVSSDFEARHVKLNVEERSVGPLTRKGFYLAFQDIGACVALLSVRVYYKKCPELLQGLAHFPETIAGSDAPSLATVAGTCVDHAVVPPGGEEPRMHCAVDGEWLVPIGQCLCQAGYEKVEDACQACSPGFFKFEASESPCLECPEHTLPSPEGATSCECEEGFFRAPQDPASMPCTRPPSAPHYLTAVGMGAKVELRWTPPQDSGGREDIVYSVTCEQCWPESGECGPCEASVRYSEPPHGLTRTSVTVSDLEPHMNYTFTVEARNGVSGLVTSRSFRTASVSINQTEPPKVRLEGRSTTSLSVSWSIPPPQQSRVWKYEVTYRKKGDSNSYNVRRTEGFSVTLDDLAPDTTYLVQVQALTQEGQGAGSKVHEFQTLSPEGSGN

B1: Mouse version of EP101 (mouse IgG) (antibody, V domains shown)
VH: EVKLVESGGGLVQPGGSLSLSCAASGFTFTDYSMNWVRQPPGKALEWLGFIRNKANDYTTEYSASVKGRFTISRDNSQSILYLQMNALRAEDSATYYCVRYPRYHAMDSWGQGTSVTVSS
VL: DIVLTQSPATLSVTPGDSVNLSCRASQSISNNLHWYQQKSHESPRLLIKYVFQSISGIPSRFSGSGSGTDFTLSINSVETEDFGMYFCQQSNSWPLTFGAGTKLELK
notes: Mouse IgG; also called anti-human EphA2 monoclonal antibody EP101; parental murine antibody
Kd: 300 pM
koff: 0.000101 s⁻¹
kon: 330000 M⁻¹ s⁻¹

B2: Chimaeric version of EP101 (hu IgG1) (antibody, V domains shown)
VH: EVKLVESGGGLVQPGGSLSLSCAASGFTFTDYSMNWVRQPPGKALEWLGFIRNKANDYTTEYSASVKGRFTISRDNSQSILYLQMNALRAEDSATYYCVRYPRYHAMDSWGQGTSVTVSS
VL: DIVLTQSPATLSVTPGDSVNLSCRASQSISNNLHWYQQKSHESPRLLIKYVFQSISGIPSRFSGSGSGTDFTLSINSVETEDFGMYFCQQSNSWPLTFGAGTKLELK
notes: Chimeric Fab cloned and expressed as a full length human IgG1; also called chimeric version of anti-EphA2 antibody
Kd: 300 pM
koff: 8.04e-05 s⁻¹
kon: 242000 M⁻¹ s⁻¹

B3: Humanized version I of EP101 (hu IgG1) (antibody, V domains shown)
VH: QMQLVQSGPEVKKPGTSVKVSCKASGFTFTDYSMNWVRQARGQRLEWLGFIRNKANDYTTEYSASVKGRVTITRDMSTSTAYMELSSLRSEDTAVYYCARYPRYHAMDSWGQGTSVTVSS
VL: DIVMTQSPSSLSASVGDRVTIICRASQSISNNLHWYQQKPGKAPKLLIKYVFQSISGVPSRFSGSGSGTDFTFTISSLQPEDFATYYCQQSNSWPLTFGGGTKVEIK
Kd: 700 pM
koff: 3.76e-05 s⁻¹
kon: 53200 M⁻¹ s⁻¹

B4: Humanized version II of EP101 (hu IgG1) (antibody, V domains shown)
VH: QMQLVQSGPEVKKPGTSVKVSCKASGFTFTDYSMNWVRQARGQRLEWIGFIRNKANDYTTEYSASVKGRVTITRDMSTSTAYMELSSLRSEDTAVYYCARYPRYHAMDSWGQGTSVTVSS
VL: DIQMTQSPSSLSASVGDRVTITCRASQSISNNLHWYQQKPGKAPKLLIKYVFQSISGVPSRFSGSGSGTDFTFTISSLQPEDFATYYCQQSNSWPLTFGGGTKVEIK
Kd: 1200 pM
koff: 4.13e-05 s⁻¹
kon: 35600 M⁻¹ s⁻¹

B5: Humanized version III of EP101 (hu IgG1) (antibody, V domains shown)
VH: QMQLVQSGPEVKKPGTSVKVSCKASGFTFTDYSMNWVRQARGQRLEWIGFIRNKANDYTTEYSASVKGRVTITRDMSTSTAYMELSSLRSEDTAVYYCARYPRYHAMDSWGQGTSVTVSS
VL: DIVMTQSPSSLSASVGDRVTIICRASQSISNNLHWYQQKPGKAPKLLIKYVFQSISGVPSRFSGSGSGTDFTFTISSLQPEDFATYYCQQSNSWPLTFGGGTKVEIK
Kd: 1300 pM
koff: 7.62e-05 s⁻¹
kon: 60000 M⁻¹ s⁻¹
